Results taken from US20260258115A1 (MAPP BIOPHARMACEUTICAL, published 2026).

B1: ADI-41287 (antibody, V domains shown)
VH: EVQLVESGGGLVQPGRSLRLSCAASGFTFDDYAMHWVRQAPGKGLEWVSSISWHSADIGYAASVEGRFTISRDNAKNSLFLQMNSLRPEDTALYYCAKEIVSTSWYSGYFQDWGQGTLVTVSS
VL: QPVLTQPRSVSGSPGQSVTISCTGTSSDVGDYNYVSWYQQHPGKAPKLMIYDVSKRPSGVPDRFSGSKSGNTASLTISGLQGEDEADYYCCSYAGRHTFVFGTATKVTVL
B2: ADI-41278 (antibody, V domains shown)
VH: EVQLVESGPALVKPTQTLTLTCTFSGFSLSTKRMGVSWIRQPPGKALEWLARIDWDDDKFYSTSLKTRLTISKDTSKNQVVLTLANMDPVDTATYFCARTTVYASGGYYLYYLDYWGQGTLVTVSS
VL: DIVMTQTPSSLSASVGDRVTLTCRASQRIASYVNWYHQKPGKAPNLLIYAASNLQSGVPSRFSGSGSGTDFTLTISSLQPEDFATYYCQQSYSTPLTFGQGTKLEIK
B3: ADI-41286 (antibody, V domains shown)
VH: QVQLVQSGAEVKKPGASVKVSCKASGYTFISYGISWVRQAPGQGPEWMGWISTHNGNTNYAQKLQGRVTMTTDTSTSTAYMELRSLRSDDTAVYYCARDERSIAVEVYLGSTFDIWGQGTMVTVSS
VL: DIQVTQSPSSVSASVGDRVTITCRASQGISSWLAWYQQKPGKAPKLLIYAASTLQSGVPSRFSGSGSGTDFTLTISRLQPEDFATYYCQQANIFGVTFGPGTKVDIK
B4: ADI-41282 (antibody, V domains shown)
VH: QVQLVQSGGGVVQPGRSLRLSCAASGFMFTIYSMHWVRQAPGKGLEWVAVISNDGVNKYYSDSVKGRFTISRDNSKNTLYLQMNNLRAEDTAVYYCASDIVVLVTATDYWGQGTLVTVSS
VL: ETTLTQSPVTLSLSPGERATLSCRTSQSFSSPLLAWYQQKPGQAPRLLIYGASNRATGIPDRFSGSGSGTDFTLTISRLEPVDFAVYYCQQYGSSPYTFGQGTKLEIK
B5: ADI-41277 (antibody, V domains shown)
VH: QVQLQESGPGLVKPSGTLSLTCAVSGGSITGRNWWSWVRQPPGKELERIGEIYHGGSTEYNPSLKGRVTISVDKSKNQFSLRLNSVTAADTAVYYCARVAHYDSNGYYIGYFDLWGRGTLVTVSS
VL: EIVLTQSPPSLSASVGDRVTITCRASQSISIYLNWYQQKPGKAPKLLIFAASSLQSGVPLRFSGSGSGTDFTLTISSLQPEDFATYYCHQSYSAPWTFGQGTKVDIK
B6: ADI-41275 (antibody, V domains shown)
VH: EVQLVESGGGLVKPGGSLRLSCAASGFMFSTYSMNWVRQAPGKGLEWVSFITGSSSDKYYAHSVKGRFTISRDNAKRTLYLQLNSLRAEDTAVYYCARFRGLYCDGDCSSRGNTYYNYYGMDVWGQGTTVTVSS
VL: EIVMTQSPLSLSVIPGEPASISCRSSKSLLHSNGYTYLDWYLQKPGQSPQLLIHLGSNRASGVPDRFSGSGSGTDFTLKISRVEAEDVGVFYCMQALQAPPTFGPGTKVEIK
B7: ADI-41276 (antibody, V domains shown)
VH: EVQLVESGGGLVQPGRSLRLSCRASGFTFRNYAMSWVRQAPGKGLEWVGFIRGKGYGGTTEYAASVKGRFTISSDDSRSIAYLQMNSLKTEDTAVYYCTRVREDGVIAVAEYYFDYWGQGTLVTVSS
VL: not shown
B8: ADI-41283 (antibody, V domains shown)
VH: QVTLKESGPTLVKPTQTLTLTCTFSGFSLSTFGVAVGWIRQPPGKALEWLALIYWDDDKRYSPSLKSRLTITKDISKNQVVLTMTNMDPVDTATYYCAHRLRSLTARGVFDIWGQGTTVTVSS
VL: DIRLTQSPSSLSASVGDRVTITCRASQSINNFLNWYQQRPGKAPTLLIYSASSLQSGVPSRFSGSGSGTDFTLTISSLQPEDFATYFCQQTDSFPWTFGQGTKVEIK
B9: ADI-41292 (antibody, V domains shown)
VH: EVQLLESGGGVVQPGRSLRLSCAASGFSFSSYGIHWVRQAPGKGLECVALMSYDGSEKYYADSVKGRFTISRDNSKNTLYLHMNSLRREDTAVYYCAKGSHLRWSHLDYYFHLWGRGTLVTVSS
VL: DIVMTQSPSTLSASVGDRVTITCRASQSLSTWLAWYQQKPGKAPKLLISDASNLESGVPSRFSGRGSGTEFTLTISGLQPDDFATYYCQQERTFGQGTKVDIK
B10: ADI-41281 (antibody, V domains shown)
VH: QVQLVQSGAEVKKPGASVKVSCKASGYSFTNHGIHWVRQAPGQRLEWMGWINVANGFTAYSQNLQGRVTFTRDTSASTAYLELTSLRSEDTAVYHCARDESYCSAGYCYLYFDYWGQGTTVTVSS
VL: DIQVTQSPSSLSASVGDRVTITCRASQNIITYVNWYQQKPGKAPELLIFGASSVQSGVPSRFSGSGSGTDFTLTISSLRPDDFATYYCQQSYSNPRTFGGGTKVEIK
B11: ADI-41279 (antibody, V domains shown)
VH: QVQLVQSGAEVKKAGETLKISCRGPAHTFTSFWIGWVRQTPGKGLEWMGNIYPGDTDTTYSPSFRGQVTISADKSISTAYLQWNSLKASDTAIYYCATRVRHGYSSSGSFESWGQGTMVTVSS
VL: QSVVTQPPSVSGAPGQRITISCTGSNSNTGAGYDVHWYQQLPGAAPKLLIFANNNRPSGVPDRFSGSKSGTSASLAITGLQAEDEADYYCQSYDNSLSAYVFGTGTKLTVL
B12: ADI-41296 (antibody, V domains shown)
VH: EVQLVESGVEVKKPGESLKISCRGSGYTFYNYWIAWVRQKPGKGLEYMGTIYLDDSETIYSPSFQGEVTISADKSINTAYLQWNSLKASDTANYYCARQMDFYFDVWGRGTLVTVSS
VL: SYELMQPPSVSVSPGQTARITCSGDPLPRESAYWYQQKPGQAPVVIIFNDIERPLGIPERFSGSRSGTTVTLTISGAQAEDEADYYCQSADSRKTFVFGTGTKLTVL
B13: ADI-41294 (antibody, V domains shown)
VH: EVQLLESGGGLVQPGGSLRLSCAASGFTFSAYEMNWVRQAPGKGLEWVSYISSSGSNKHYADSVKGRFTISRDNAKNSLHLHMNSLRAEDTALYYCTRPHQEEWELLPNDAFDLWGQGTMVTVSS
VL: QSALTQPPSASGSPGQSVTISCTGTSTDVGAYTYVSWYQQHPGKAPKLIIYEVYKRPSGVPNRFFGSKSGNTASLTVSGLQAEDEADYYCSSYGGSNNFGLFGGGTKLIVL
B14: ADI-41280 (antibody, V domains shown)
VH: QVQLVESGPGLVKPSETLALTCTVSGGSLSTYYWSWIRQPPGKGLEWIGYIYYSGTTYYNPSLKSRVTISEDRSKNQFSLKLTSVTAADTAVYYCARHGPKTEFWSAQYYLELWGRGTLVTVSS
VL: EIVLTQSPGTLSLSPGERATLSCRASQSVSSDYLAWYQQKPGQAPSLLIYGVSTRATGIPDRISGSGSGTDFTLTISRLEPEDFAVYYCHQYGTSPWTFGQGTKVEIK
B15: ADI-41293 (antibody, V domains shown)
VH: QVQLQQSGPGLAKPSQTLSLTCTVSGGPISGVDYYWSWIRQPPGKGLEWIGYIYYSGSTYYNPSLKSRVTISVDTSKKQFSLKMSSVTAADTAVYYCARDVGATPYYYYGMDVWGQGTTVTVSS
VL: DIVLTQSPDTLSLSPGERATLSCRASQSVRSNYLAWYQHKPGQAPRLLIYGASSRVAGIPDRFSGSGSGTDFTLTISRLEPEDFAVYYCQQYGSSPPSVTFGGGTKVEIK
B16: ADI-41297 (antibody, V domains shown)
VH: QVQLVQSGAEVKKPGSSVKVSCKASGGTFSTDAISWVRQAPGQGLEWMGGIIPLFGTANYAQKFQGRVTITADESTSTAYMELNSLRSVDTAVYYCGRTGAFDGEVVVRPHLDLWGQGTLVTVSS
VL: QPVLTQPASVSGSPGQSITISCTGTSSDVGGYDYVSWYQHHPGKAPKLMIYEVSNRPSGVSNRFSGSKSGNTASLTISGLQADDEAAYYCSSYTRSNTLLFGGGTKLTVL
B17: ADI-41288 (antibody, V domains shown)
VH: EVQLVESGGGLVQPGGSLRLSCAASGFTFSSYAMSWVRQAAGKGLEWVSAISGSGDDTFYADSVKDRFIISRDSSKRKVYLQMNSLRVEDTAVYYCAKTDIMVTFGGVVVDAYYFDHWGQGTLVTVSS
VL: ETTLTQSPGTLSLSPGERATLSCRASQFVFRSYLAWYQQRPGQPPRLLIYGASSRATGIPDRFSGRGSGTEFTLTISRLEPEDFAMYYCQHYDSSPPGTFGGGTKVEIK
B18: ADI-41285 (antibody, V domains shown)
VH: QVQLVQSGAEVKKPGSSVKVSCKASGGTFSYYAISWVRQAPGQGLEWMGGIIPILGTVKNAQKFQGRVTITADKITSIAYMELSSLRHEDTAVYYCARDYYDSSGYYYNGYGMDVWGQGTTVTVSS
VL: QSVLIQPPSASGTPGQRVTISCSGSSSNIGSNYVYWYQQLPGTAPKLLIYRNDQRPSGVPDRFSGSKSGTSASLAISGLRSGDEADYYCAAWDDSLGGPIWVFGGGTKLTVL
B19: ADI-41289 (antibody, V domains shown)
VH: EVQLVQSGAEVKKPGESLKISCKGSGYSFSSFWIGWVRQMPGKGLEWMGIIYPGDSDTRYSPSFQGQVTISADQSIRTAYLQWNSLKASDTGLYYCAKGGLGDVEMATIAVWGQGTLVTVSS
VL: QSVLIQPASVSGSPGQSITIPCTGTSSDVGSYNLVSWYQHHPGKAPKLIISEGSKRPLGVSNRFSGSKSGNTASLTISGLQAEDEADYYCSSYVRSRTFNYVFGTGTKLTVL
B20: ADI-41291 (antibody, V domains shown)
VH: QVQLQQWGAGLLKPSETLSLTCVVYGESFSDSGYYWTWIRQPPEKGLEWIGEINHGGSTSYNPSLKSRVTISVDTSENQFSLKVTSVTGADTAVYYCARLRLGCSGGSCYSRFDYWGQGTLVTVSS
VL: DIQLTQSPSSLSASVGDRVTITCRASQSINSYLNWYQQKPGKAPVLLIHAASSLQGGVPSRFSGSGSGTDFTLTISSLQPEDFATYYCQQSYNTRWTFGHGTKVDIK
B21: ADI-41284 (antibody, V domains shown)
VH: QVQLVQSGGGLVKPGGSLRLSCAASGFTFSNAWMSWVRQAPGKGLEWVGRIKSEVDGGTADYAANVKGRLTISRDDSKNMMYLQMNSLKTEDTAVYYCTTDPGVGWIFGEVKLFRTDPEYWGQGTLVTVSS
VL: QSVLTQPPSVSAAPGQKVTISCSGSSSNIGNHYVSWYQQLPGTSPKLLIYDNNKRPSGIPDRFSGSKSGTSATLGITGLQPGDEADYYCGTWDSSLSAVRVFGGGTKVTVL

Molecular target: RSV F on RSV-A2 virus (Respiratory syncytial virus (RSV-A2))
Assay: cell-based or functional assay

Binder	Neutralization IC50 (RSV subtype A) [µg/mL]
B1	5.85
B2	> 25
B3	> 25
B4	> 25
B5	> 25
B6	> 25
B7	> 25
B8	> 25
B9	> 25
B10	> 25
B11	> 25
B12	> 25
B13	0.0805
B14	> 25
B15	0.159
B16	> 25
B17	> 25
B18	> 25
B19	> 25
B20	> 25
B21	> 25
